# Measurements published in the supplement of paper PMC9112550, “Optimization of the antimicrobial peptide Bac7 by deep mutational scanning” (BMC Biology, 2022).
# System: Escherichia coli TOP10
# Assay: shrunken log2 fold change of peptide-encoding DNA abundance (4.5 h post-induction vs induction); higher = less antimicrobial activity (less host growth inhibition)
# Settings: time post-induction: 4.5 h; library: site-saturation at positions 5, 18, 19, 20
# 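Note: peptides expressed intracellularly from a pBAD plasmid library in pooled LB shake-flask culture, induced with 0.3% L-arabinose, DNA abundance read by NGS, three biological replicates, DESeq2 with apeglm shrinkage.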
row,Sequence,shrunken log2 fold change
1,RRIRRRPPRLPRPRPRPADHPRP,-0.115
2,RRIRTRPPRLPRPRPRPTRTPRP,0.767
3,RRIRQRPPRLPRPRPRPWHLPRP,-0.0241
4,RRIRVRPPRLPRPRPRPDHEPRP,-0.0524
5,RRIRPRPPRLPRPRPRPWPSPRP,-0.125
6,RRIRMRPPRLPRPRPRPYTWPRP,-0.101
7,RRIRPRPPRLPRPRPRPFLMPRP,-0.349
8,RRIRRRPPRLPRPRPRPKHPPRP,0.294
9,RRIRIRPPRLPRPRPRPLTIPRP,-0.536
10,RRIRVRPPRLPRPRPRPDCKPRP,-0.104
11,RRIRNRPPRLPRPRPRPATHPRP,0.224
12,RRIRRRPPRLPRPRPRPRVSPRP,0.335
13,RRIRGRPPRLPRPRPRPANSPRP,0.186
14,RRIRKRPPRLPRPRPRPGKNPRP,-0.181
15,RRIRTRPPRLPRPRPRPGPVPRP,0.141
16,RRIRQRPPRLPRPRPRPMNVPRP,-0.0102
17,RRIRQRPPRLPRPRPRPWCAPRP,0.0231
18,RRIRFRPPRLPRPRPRPRYYPRP,-0.617
19,RRIRERPPRLPRPRPRPHQRPRP,0.0138
20,RRIRTRPPRLPRPRPRPSIMPRP,-0.827
21,RRIRLRPPRLPRPRPRPYLLPRP,-0.248
22,RRIRKRPPRLPRPRPRPWCHPRP,-0.15
23,RRIRGRPPRLPRPRPRPENGPRP,0.223
24,RRIRLRPPRLPRPRPRPTVCPRP,-0.0284
25,RRIRYRPPRLPRPRPRPSILPRP,-1.25

row,Sequence,shrunken log2 fold change
1,RRIRARPPRLPRPRPRPCIFPRP,0.131
2,RRIRWRPPRLPRPRPRPALWPRP,0.53
3,RRIRIRPPRLPRPRPRPDLSPRP,-0.000521
4,RRIRDRPPRLPRPRPRPMNKPRP,-0.381
5,RRIRCRPPRLPRPRPRPHDGPRP,0.0999
6,RRIRGRPPRLPRPRPRPHQCPRP,-0.0129
7,RRIRMRPPRLPRPRPRPFTVPRP,-0.00884
8,RRIRLRPPRLPRPRPRPLLMPRP,-0.136
9,RRIRHRPPRLPRPRPRPNHGPRP,0.0424
10,RRIRHRPPRLPRPRPRPRLNPRP,-0.249
11,RRIRARPPRLPRPRPRPWEMPRP,0.00132
12,RRIRDRPPRLPRPRPRPETYPRP,0.217
13,RRIRIRPPRLPRPRPRPSIPPRP,-0.867
14,RRIRSRPPRLPRPRPRPKKFPRP,-0.222
15,RRIRLRPPRLPRPRPRPCSCPRP,0.00383
16,RRIRIRPPRLPRPRPRPGTWPRP,-0.475
17,RRIRQRPPRLPRPRPRPGHGPRP,-0.124
18,RRIRARPPRLPRPRPRPKILPRP,-0.168
19,RRIRDRPPRLPRPRPRPQDPPRP,-0.213
20,RRIRQRPPRLPRPRPRPALTPRP,0.128
21,RRIRRRPPRLPRPRPRPPQTPRP,0.828
22,RRIRFRPPRLPRPRPRPNPHPRP,-0.428
23,RRIRSRPPRLPRPRPRPMTLPRP,-0.103
24,RRIRARPPRLPRPRPRPLGRPRP,0.321
25,RRIRPRPPRLPRPRPRPQGSPRP,0.0552

row,Sequence,shrunken log2 fold change
1,RRIRDRPPRLPRPRPRPLIQPRP,0.365
2,RRIRTRPPRLPRPRPRPNEFPRP,0.0177
3,RRIRQRPPRLPRPRPRPQSQPRP,-0.159
4,RRIRMRPPRLPRPRPRPIQVPRP,-0.00663
5,RRIRTRPPRLPRPRPRPWNIPRP,0.0303
6,RRIRSRPPRLPRPRPRPHECPRP,-0.0285
7,RRIRKRPPRLPRPRPRPHPSPRP,0.163
8,RRIRTRPPRLPRPRPRPKGAPRP,0.351
9,RRIRRRPPRLPRPRPRPLMHPRP,0.292
10,RRIRYRPPRLPRPRPRPFRVPRP,-0.0371
11,RRIRIRPPRLPRPRPRPFNPPRP,-0.0657
12,RRIRQRPPRLPRPRPRPPPMPRP,0.558
13,RRIRARPPRLPRPRPRPHSVPRP,0.0268
14,RRIRQRPPRLPRPRPRPIIRPRP,0.00525
15,RRIRGRPPRLPRPRPRPPQRPRP,0.97
16,RRIRPRPPRLPRPRPRPLIPPRP,-0.19
17,RRIRERPPRLPRPRPRPMRAPRP,0.763
18,RRIRHRPPRLPRPRPRPSLQPRP,-0.0974
19,RRIRHRPPRLPRPRPRPAAFPRP,0.068
20,RRIRKRPPRLPRPRPRPHVMPRP,0.0754
21,RRIRMRPPRLPRPRPRPERDPRP,2.25
22,RRIRTRPPRLPRPRPRPFLLPRP,-0.743
23,RRIRSRPPRLPRPRPRPTKNPRP,0.168
24,RRIRARPPRLPRPRPRPPKWPRP,0.732
25,RRIRCRPPRLPRPRPRPDALPRP,0.0862
